Results as given in IntAct's records for PubMed 29150600.

The substances below were run against tlr4_human TLR4 (UniProt O00206).
tlr4_human TLR4, sequence (O00206 whole entry): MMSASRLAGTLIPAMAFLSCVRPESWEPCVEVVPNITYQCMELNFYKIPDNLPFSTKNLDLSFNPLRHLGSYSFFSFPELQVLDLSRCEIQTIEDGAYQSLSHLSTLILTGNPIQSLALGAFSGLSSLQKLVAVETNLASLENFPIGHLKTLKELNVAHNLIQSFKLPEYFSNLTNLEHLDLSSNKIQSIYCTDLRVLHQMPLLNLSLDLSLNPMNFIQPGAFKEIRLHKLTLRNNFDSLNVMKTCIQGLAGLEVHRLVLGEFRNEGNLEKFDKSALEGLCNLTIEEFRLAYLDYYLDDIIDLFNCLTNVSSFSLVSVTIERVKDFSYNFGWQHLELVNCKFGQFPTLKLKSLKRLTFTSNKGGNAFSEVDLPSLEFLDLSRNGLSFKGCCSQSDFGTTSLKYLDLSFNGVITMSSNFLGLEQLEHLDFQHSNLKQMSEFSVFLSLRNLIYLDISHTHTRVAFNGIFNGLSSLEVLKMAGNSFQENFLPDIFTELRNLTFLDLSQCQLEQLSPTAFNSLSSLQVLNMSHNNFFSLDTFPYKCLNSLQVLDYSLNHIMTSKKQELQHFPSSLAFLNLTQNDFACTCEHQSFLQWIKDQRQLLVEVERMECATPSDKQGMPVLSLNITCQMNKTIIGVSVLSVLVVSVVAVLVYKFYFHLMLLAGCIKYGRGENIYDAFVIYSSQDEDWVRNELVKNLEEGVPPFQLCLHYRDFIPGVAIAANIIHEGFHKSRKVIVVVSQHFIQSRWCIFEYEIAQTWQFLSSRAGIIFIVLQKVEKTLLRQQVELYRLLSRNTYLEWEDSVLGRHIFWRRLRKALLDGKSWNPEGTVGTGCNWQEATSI

Row | effect of a mutation on the interaction | Substance
1 | decreasing interaction strength | Tenascin (Homo sapiens), P24821 K2096A;R2098A
2 | decreasing interaction strength | Tenascin (Homo sapiens), P24821 K2096A;R2098A;K2100A;K2102A;D2130P;I2133L;N2135S

Second part, the substance before the results:

Row | Substance | effect of a mutation on the interaction
3 | Tenascin (Homo sapiens), P24821 D2130P;I2133L;N2135S | decreasing interaction strength
4 | Tenascin (Homo sapiens), P24821 K2096A;R2098A;K2100A;K2102A | decreasing interaction strength
5 | Tenascin (Homo sapiens), P24821 K2100A;K2102A | decreasing interaction strength
